In PMC3341331 (2012):

T1: recombinant E protein domain III of DENV-2, flag and hexahistidine tagged (dengue virus type 2)
T1 chain: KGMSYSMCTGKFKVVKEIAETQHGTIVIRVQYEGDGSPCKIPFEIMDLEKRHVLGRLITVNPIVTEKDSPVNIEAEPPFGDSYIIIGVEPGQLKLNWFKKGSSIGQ


Target: T1, recombinant E protein domain III of …
Assay: SPR

| Binder | koff |
| --- | --- |
| humanized DB32-6 monoclonal antibody (antibody, V domains shown) VH: EVQLQQSGAELVKPGASVNLSCTASGFNIKDTYIHWVKQRPEQGLEWIGRIDPENGNAKYDPNFQAKATIAADTSSNTAYLQLSSLTSEDTAVYYCVRTGSFWYFDVWGQGTLVTVSS VL: not shown | 1.7e-06 s⁻¹ |
| murine DB32-6 monoclonal antibody (antibody) chain 1: QVQLQQSGAELVKPGASVKLSCTASGFNIKDTYIHWVKQRPGQGLEWIGRIDPENGNAKYDPNFQAKATITADTSSNTAYLHLSSLTSEDTAVYYSVRTGSFWYFDVWGAGTTVTVSS chain 2: not shown | 1.7e-06 s⁻¹ |
